# Measurements published in PMC4980427, “Ctf4 Links DNA Replication with Sister Chromatid Cohesion Establishment by Recruiting the Chl1 Helicase to the Replisome” (Molecular Cell, 2016).
# Molecular target: the molecule itself
# Test: negative-stain single-particle EM of reconstituted assemblies; purified Ctf4 core, GINS and Chl1 mixed in equimolar amounts; reconstituted assemblies on silver-stained gel and two-dimensional class averages
protein,measurement,value
"Ctf4 (residues 471–927) (domain or fragment, S. cerevisiae, UniProt Q01454 471-927, looked up, Ctf4 C-terminal trimerization core that contains the CIP box acceptor, residues 471-927; also called Ctf4 C-terminal trimerization core; Ctf4 core; source: E. coli, overexpressed, purified) TGKFRYMPFSPAGTPFGFTDRRYLTMNEVGYVSTVKNSEQYSITVSFFDVGRFREYHFEDLFGYDLCFLNEKGTLFGQSKTGQIQYRPHDSIHSNWTKIIPLQAGERITSVAATPVRVIVGTSLGYFRSFNQFGVPFAVEKTSPIVALTAQNYRVFSVHYSQFHGLSYSLSELGTSSKRYYKRECPLPMSLPNINSDMKKDANLDYYNFNPMGIKSLFFSSYGDPCIFGSDNTLLLLSKWRSPEESKWLPILDSNMEIWKMSGGKETTDIHVWPLALAYDTLNCILVKGKHIWPEFPLPLPSEMEIRMPVFVKSKLLEENKAILNKKNEIGADTEAEEGEEDKEIQIPVSMAAEEEYLRSKVLSELLTDTLENDGEMYGNENEVLAALNGAYDKALLRLFASACSDQNVEKALSLAHELKQDRALTAAVKISERAELPSLVKKINNIREARYEQQLK",stoichiometry N,3
